Reference: the supplement of paper PMC9170038

Test system: MS2 coat protein
Assay: apparent KD of MS2 coat protein; designed switch direction (-1 OFF switch, 1 ON switch): -1; higher = weaker reporter binding
Method in brief: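 The reported apparent KD is a per-design median over clusters, from curve fits of normalised cluster fluorescence. Protein titrations used SNAP-549-labelled MS2 coat protein, doubled from 0.7 or 1.5 nM to 3 µM, in Tris-HCl pH 7.5 buffer with KCl, MgCl2, BSA, DTT, tRNA and Tween-20, with no input, 200 uM small-molecule ligand, or an oligonucleotide input. The RNA switches were transcribed on Illumina chips by stalled E. coli RNA polymerase.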

[1] = input ligand: microRNA oligo, concentration not stated
[2] = Eterna round: R95, input ligand: FMN 200 uM
[3] = Eterna round: R95, input ligand: microRNA oligo, concentration not stated
[4] = Eterna round: R95, input ligand: none

Sequence | apparent KD of MS2 coat protein (input ligand: FMN 200 uM) | apparent KD of MS2 coat protein [1] | apparent KD of MS2 coat protein (input ligand: none) | apparent KD of MS2 coat protein [2] | apparent KD of MS2 coat protein [3] | apparent KD of MS2 coat protein [4]
CUGGACCCGGUAGGAUAUAUUGUGGGCGGGCGUGGAACGACAUGAGGAUCACCCAUGUGAUUGAGGUAGAAGGGCCGAGAGGUU [Excl-NG2-LRO18] (Eterna round: R96, puzzle: Exclusion NG 2) | 52.7 nM | 33.8 nM | 61.8 nM |  |  | 
CUGGUCCGAGGAUAUAUUAUGUGAUACAUGAGGAUCACCCAUGUUAUAUGAUGGAUAUAAAUAGAAGGCGGACUAG [Mat - Exclusion 5 - JL mod - D66] (puzzle: Exclusion 5) |  |  |  | 48.6 nM | 42.4 nM | 35.8 nM
CUGGUGUGAGGAUAUCAGGACACGUACGCGGGCAUGUCAAAUGAGAAGGCACAUGAGGAUCACCCAUGUGGGAC [Geve] (puzzle: Exclusion 4) |  |  |  |  | 26 nM | 
CUGUGCACGCUGCGAUCCUACAUGAGGAUCACCCAUGUGGUCUGGUGGCGUGGGUCACCGGACUUGGCUCGUCUUGC [salish99_S_TOV1_R5_071] (Eterna round: R97, puzzle: Sensor, turn-off variant 1) | 31.4 nM |  | 31.6 nM |  |  | 
CUGUGCACGCUGCGGUCCUACAUGAGGAUCACCCAUGUGGUCUGGUGGCGUGGGUCGCCGGACUUGGCUCGUCUUGU [salish99_S_TOV1_R5_024] (Eterna round: R97, puzzle: Sensor, turn-off variant 1) | 18.2 nM |  | 19.3 nM |  |  | 
CUGUUUUUCGCAGGAUAUGCUCCUCCAUUAUUUGCAGAAGGGCGUUGAACAUGAGGAUCACCCAUGUAUGGAAAUGACUAUUGC [JR_ExcNG1_Sub068] (Eterna round: R96, puzzle: Exclusion NG 1) | 22.1 nM | 14.9 nM | 18.2 nM |  |  | 
CUUAAGGCAGGAUAUGCUGUUUGUGACAUGAGGAUCACCCAUGUGAUGCAGUUUGGGUGUGCAGAAGGGCCUGAGU [JR_E5_Sub032] (puzzle: Exclusion 5) |  |  |  | 96.4 nM | 71.5 nM | 131 nM
CUUAGACAUGAGGAUCACCCAUGUCAGGAUAUCGUCUACCUGUGGAAACACAGGUAGACGAGAAGGGAUGUGUU [SS1 Omei 3] (puzzle: Exclusion 1) |  |  |  |  | 37.8 nM | 
CUUAGACAUGAGGAUCACCCAUGUGAGGAUAUGAUGCAGCAGUGGUCUACGCUGUGCAUCAGAAGGCACAUGUG (puzzle: Exclusion 1) |  |  |  |  | 62.4 nM | 
CUUAGCCUAAAAUCACGCAAGCUUUUUGCUUGUCUAAAGACAUGAGGAUCACCCAUGUCCGGGCUGAACUUAUGGAA [Atqusoen] (puzzle: Sensor v3, turn-off variant 2) |  |  |  | 17.7 nM | 18.1 nM | 16 nM
CUUAUGUGAGGAUAUCAGUAGUAAUACAAUAGUAUUACUACUGAGAAGGCACAUGAGGAUCACCCAUGUUCUUC [Exclusion 4 - Mod Omei Ex4 344 mod v.2] (puzzle: Exclusion 4) |  |  |  |  | 103 nM | 
CUUCACCCACCAAAGCUCACCCACAUACCUGCUCUGGUGACAUGAGGAUCACCCAUGUUUUUUGCCCGUCUUAUCUU [Leso] (puzzle: Sensor v3, turn-off variant 2) |  |  |  | 40.7 nM | 163 nM | 41.4 nM
CUUCGGCGAGGAUAUUACGAGAACGACAUGAGGAUCACCCAUGUGAUCGAGGUUGCCUCGUAAGAAGGCGCAUAUA [Reederedle] (Eterna round: R97, puzzle: Exclusion 5) | 1050 nM |  | 244 nM |  |  | 
CUUCUCAGAGGAUAUCACGGUAAUAACAUGAGGAUCACCCAUGUGGAAUUCGUGUCCCUGUGAGAAGGCUGAGAAG [Bezavere] (puzzle: Exclusion 5) |  |  |  | 33.2 nM | 12.2 nM | 16 nM
CUUCUGUCAGGAUAUGCGAAUCACCGCUGGGUCAGCGGCGAGCAGAAGGGACAUGAGGAUCACCCAUGUAAAAU [Quriveer] (Eterna round: R97, puzzle: Exclusion 4) | 211 nM |  | 51.3 nM |  |  | 
CUUGAGCAGGUAGGAUAUACGAAGUGUCGGCGAGUAGAAGGACCUGCGAUCCACUUGAGGAUCACCCAAGUUCGCAGGAGAACA [Mutated MS2 EX1.1] (Eterna round: R96, puzzle: Exclusion NG 1) | 241 nM | 32.4 nM | 61.3 nM |  |  | 
